The values below come from PMC8131568, “A noncanonical heme oxygenase specific for the degradation of c-type heme” (The Journal of Biological Chemistry, 2021).

This data set deals with the molecule itself. Description: crystal structure; Pden_1323 alone at 12 mg/ml; sitting-drop vapor diffusion; 14% glycerol, 18 to 25% PEG 4000, 0.3 M sodium acetate, 0.1 M Tris pH 8.8.

B1: Pden_1323 (enzyme, Paracoccus denitrificans PD1222)
chain: MKIDPIRETTDEARALARQLLEAARHASLGTLDPETGVPLVTRIALQTDADGVPLALLAGLAAHARALAVDPRAGLLIAAEAAKGDAMTHARLSILGRAVPAEPDENRRARWLERDPKAKVYLDLPDFRFWRIEPVSGLLNAGFGQAFKLTASDMLKPPAE
notes: Pden_1323, product of the pden_1323 gene of Paracoccus denitrificans PD1222 (opp gene cluster), codon-optimized and cloned NdeI/XhoI into pET-28b(+); HugZ homolog; also called c-type heme oxygenase; CHO; source: Superdex 200 for crystallography; not shown: His-tag, N-terminal, cleaved
Regarding B1, the binding result was “binds”.
